The values below come from patent US20240400701A1 (LANOVA MEDICINES DEVELOPMENT, published 2024).

T1: human AMHRII (anti-Mullerian hormone receptor type 2) (human, UniProt Q16671 18-573)
T1 construct: whole, on cells; also called AMHR2; human AMHR2
T1 sequence (looked up): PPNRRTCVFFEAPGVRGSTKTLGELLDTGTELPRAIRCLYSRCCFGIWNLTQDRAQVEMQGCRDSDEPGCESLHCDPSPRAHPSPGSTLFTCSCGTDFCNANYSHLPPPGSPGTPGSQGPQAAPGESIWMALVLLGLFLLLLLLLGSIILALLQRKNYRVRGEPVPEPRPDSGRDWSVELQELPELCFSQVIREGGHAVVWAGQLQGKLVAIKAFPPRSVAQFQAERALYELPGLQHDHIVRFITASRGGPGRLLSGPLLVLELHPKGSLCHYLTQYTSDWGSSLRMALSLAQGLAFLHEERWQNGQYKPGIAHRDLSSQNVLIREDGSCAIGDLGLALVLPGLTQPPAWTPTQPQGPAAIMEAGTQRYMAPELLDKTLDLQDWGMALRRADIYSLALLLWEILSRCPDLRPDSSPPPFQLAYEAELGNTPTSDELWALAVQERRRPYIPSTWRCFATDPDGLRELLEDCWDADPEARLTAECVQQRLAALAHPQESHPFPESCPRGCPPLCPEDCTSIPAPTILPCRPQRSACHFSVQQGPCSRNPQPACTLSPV

B1: 94C4C3 H4L3 hIgG1 (antibody, V domains shown)
VH: QVQLQESGPGLVKPSETLSLTCTVTGYSITSDYAWNWIRQFPGKKLEWMGYISYSGSISYNPSLKSRITISRDTSKNQFFLQLSSVTAADTAVYYCARSRYSWFDYWGQGTLVTVSS
VL: EIVLTQSPGTLSLSPGERATLSCSASESVDTYGNSFMHWYQQKPGQPPRLLIYRASSLESGIPVRFSGSGSRTDFTLTISRVEAEDFAVYYCQQSNEDPYTFGGGTKLEIK
notes: Humanized, human IgG1; also called 94C4C3 H4L3 hlgG1
B2: 94C4C3 H4L4 hIgG1 (antibody, V domains shown)
VH: QVQLQESGPGLVKPSETLSLTCTVTGYSITSDYAWNWIRQFPGKKLEWMGYISYSGSISYNPSLKSRITISRDTSKNQFFLQLSSVTAADTAVYYCARSRYSWFDYWGQGTLVTVSS
VL: DIVLTQSPGTLSVSPGERATLSCSASESVDTYGNSFMHWYQQKPGQPPKLLIYRASSLESGIPVRFSGSGSRTDFTLTISRVEAEDFAVYYCQQSNEDPYTFGGGTKLEIK
notes: Humanized, human IgG1; also called 94C4C3 H4L4 hlgG1
B3: 31D9B3 H1L1 hIgG1 (antibody, V domains shown)
VH: QVQLVQSGAEVKKPGASVKVSCKASGYTFTDYWVSWVRQAPGQGLEWMGEIYPKNGVSNFNEKFKGRVTMTTDTSTSTAYMELRSLRSDDTAVYYCARQRDYWGQGTLVTVSS
VL: DVVMTQSPLSLPVTLGQPASISCRSSQSLEYGDGYTYLEWFQQRPGQSPRRLIYGVSNRFSGVPDRFSGSGSGTDFTLKISRVEAEDVGVYYCFQATHDPNTFGQGTKLEIK
notes: Humanized, human IgG1; also called 31D9B3 H1L1 hlgG1
B4: 31D9B3 H2L2 hIgG1 (antibody, V domains shown)
VH: QVQLVQSGAEVVKPGASVKVSCKASGYTFTDYWVSWVRQAPGQGLEWIGEIYPKNGVSNFNEKFKGRVTMTVDTSTSTAYMELRSLRSDDTAVYYCTRQRDYWGQGTLVTVSS
VL: DVVMTQSPLSLPVTLGQPASISCRSSQSLEYGDGYTYLEWYLQRPGQSPRLLIYGVSNRFSGVPDRFSGSGSGTDFTLKISRVEAEDVGVYYCFQATHDPNTFGQGTKLEIK
notes: Humanized, human IgG1; also called 31D9B3 H2L2 hlgG1
B5: 31D9B3 H1L3 hIgG1 (antibody, V domains shown)
VH: QVQLVQSGAEVKKPGASVKVSCKASGYTFTDYWVSWVRQAPGQGLEWMGEIYPKNGVSNFNEKFKGRVTMTTDTSTSTAYMELRSLRSDDTAVYYCARQRDYWGQGTLVTVSS
VL: DVVMTQSPLSLPVTLGQPASISCRSSQSLEYGDGYTYLEWYLQRPGQSPRLLIYGVSNRFSGVPDRFIGSGSGTDFTLKISRVEAEDVGVYYCFQATHDPNTFGAGTKLEIK
notes: Humanized, human IgG1; also called 31D9B3 H1L3 hlgG1
B6: 31D9B3 H2L3 hIgG1 (antibody, V domains shown)
VH: QVQLVQSGAEVVKPGASVKVSCKASGYTFTDYWVSWVRQAPGQGLEWIGEIYPKNGVSNFNEKFKGRVTMTVDTSTSTAYMELRSLRSDDTAVYYCTRQRDYWGQGTLVTVSS
VL: DVVMTQSPLSLPVTLGQPASISCRSSQSLEYGDGYTYLEWYLQRPGQSPRLLIYGVSNRFSGVPDRFIGSGSGTDFTLKISRVEAEDVGVYYCFQATHDPNTFGAGTKLEIK
notes: Humanized, human IgG1; also called 31D9B3 H2L3 hlgG1
B7: 31D9B3 H1L4 hIgG1 (antibody, V domains shown)
VH: QVQLVQSGAEVKKPGASVKVSCKASGYTFTDYWVSWVRQAPGQGLEWMGEIYPKNGVSNFNEKFKGRVTMTTDTSTSTAYMELRSLRSDDTAVYYCARQRDYWGQGTLVTVSS
VL: DVVLTQSPLSLPVTLGQPASISCRSSQSLEYGDGYTYLEWYLQRPGQSPQLLIYGVSNRFSGVPDRFIGSGSGTDFTLKISRVEPEDVGVYYCFQATHDPNTFGAGTKLEIK
notes: Humanized, human IgG1; also called 31D9B3 H1L4 hlgG1
B8: 31D9B3 H2L1 hIgG1 (antibody, V domains shown)
VH: QVQLVQSGAEVVKPGASVKVSCKASGYTFTDYWVSWVRQAPGQGLEWIGEIYPKNGVSNFNEKFKGRVTMTVDTSTSTAYMELRSLRSDDTAVYYCTRQRDYWGQGTLVTVSS
VL: DVVMTQSPLSLPVTLGQPASISCRSSQSLEYGDGYTYLEWFQQRPGQSPRRLIYGVSNRFSGVPDRFSGSGSGTDFTLKISRVEAEDVGVYYCFQATHDPNTFGQGTKLEIK
notes: Humanized, human IgG1; also called 31D9B3 H2L1 hlgG1

The first test concerns the target T1, human AMHRII (anti-Mullerian hormone …). Put plainly: FACS on CHO-K1 cells over-expressing human AMHR2. Here is the method:
(§1) CHO-K1 cells over-expressed AMHR2 were harvested from flasks. 100 μl of 1×10⁶ cells/ml of cells were incubated with the humanized antibodies in 3-fold serial dilutions starting from 300 nM to 0.001 nM for 30 minutes on ice. After being washed with 200 μl of FACS buffer twice, cells were incubated with secondary antibody for 30 minutes on ice. Cells were washed with 200 μl of FACS buffer twice and analyzed by FACS.
By EC50 is commonly meant the midpoint of the concentration-response curve. Read a high EC50 as a less potent agent. For the molecule B1, the half-maximal effective concentration (EC50) is 1.16 nM and the “Top (MFI)” value was determined as 51100 MFI.

With B2, the EC50 was 1.09 nM and the “Top (MFI)” value stood at 57900 MFI.

The target is the same in the next test. Put plainly: FACS on CHO-K1 cells over-expressing human AMHR2. This is another data set of the same source. Here is the method:
as §1
Consider B3, for which the EC50 was determined as 89.1 nM and the “Top (MFI)” value turned out to be 8940 MFI.

As to B4, a half-maximal response (EC50) required 1.58 nM and the “Top (MFI)” value turned out to be 37900 MFI.

Consider B5, for which the EC50 stood at 1.36 nM and the “Top (MFI)” value was 34700 MFI.

B6: the EC50 worked out at 1.28 nM and the “Top (MFI)” value amounted to 36700 MFI.

Take B7: the 50% effective concentration (EC50) was determined as 1.42 nM and the “Top (MFI)” value was found to be 34100 MFI.

In the case of B8, the response was half-maximal at 22.5 nM (EC50) and the “Top (MFI)” value was 19100 MFI.
